Experimental data taken from PMC12148503, “Molecular Basis of Interchain Disulfide Bond Formation in BMP-9 and BMP-10” (Journal of molecular biology, 2025).

B1: Pro-(X)-BMP-9 (natural protein, human, UniProt Q9UK05 23-429, looked up)
chain: KPLQSWGRGSAGGNAHSPLGVPGGGLPEHTFNLKMFLENVKVDFLRSLNLSGVPSQDKTRVEPPQYMIDLYNRYTSDKSTTPASNIVRSFSMEDAISITATEDFPFQKHILLFNISIPRHEQITRAELRLYVSCQNHVDPSHDLKGSVVIYDVLDGTDAWDSATETKTFLVSQDIQDEGWETLEVSSAVKRWVRSDSTKSKNKLEVTVESHRKGCDTLDISVPPGSRNLPFFVVFSNDHSSGTKETRLELREMISHEQESVLKKLSKDGSTEAGESSHEEDTDGHVAAGSTLAIEGRSSGAGSHCQKTSLRVNFEDIGWDSWIIAPKEYEAYECKGGCFFPLADDVTPTKHAIVQTLVHLKFPTKVGKACCVPTKLSPISVLYKDDMGVPTLKYHYEGMSVAECGCR
notes: Human proBMP9 residues 23-429; Behind the rat serum albumin signal peptide, the 8xHis tag and a factor Xa site (IEGR); Secreted unprocessed as a mixture of disulfide-linked dimers and monomers; also called Pro-BMP-9 with the furin site replaced by a factor X site; Pro-BMP-9 wild-type; source: expi293 (suspension HEK293), secreted; purified from conditioned medium by IMAC; not shown: 8xHis, …
B2: Pro-(X)-BMP-9 G389S (natural protein, human, UniProt Q9UK05 23-429, looked up)
chain: KPLQSWGRGSAGGNAHSPLGVPGGGLPEHTFNLKMFLENVKVDFLRSLNLSGVPSQDKTRVEPPQYMIDLYNRYTSDKSTTPASNIVRSFSMEDAISITATEDFPFQKHILLFNISIPRHEQITRAELRLYVSCQNHVDPSHDLKGSVVIYDVLDGTDAWDSATETKTFLVSQDIQDEGWETLEVSSAVKRWVRSDSTKSKNKLEVTVESHRKGCDTLDISVPPGSRNLPFFVVFSNDHSSGTKETRLELREMISHEQESVLKKLSKDGSTEAGESSHEEDTDGHVAAGSTLAIEGRSSGAGSHCQKTSLRVNFEDIGWDSWIIAPKEYEAYECKGGCFFPLADDVTPTKHAIVQTLVHLKFPTKVSKACCVPTKLSPISVLYKDDMGVPTLKYHYEGMSVAECGCR
notes: Human proBMP9 residues 23-429; mutant based on Pro-(X)-BMP-9; also called G389S BMP-9; source: expi293 (suspension HEK293), secreted; purified from conditioned medium by IMAC; not shown: 8xHis, N-terminal, kept
B3: Pro-(X)-BMP-9 K357R (natural protein, human, UniProt Q9UK05 23-429, looked up)
chain: KPLQSWGRGSAGGNAHSPLGVPGGGLPEHTFNLKMFLENVKVDFLRSLNLSGVPSQDKTRVEPPQYMIDLYNRYTSDKSTTPASNIVRSFSMEDAISITATEDFPFQKHILLFNISIPRHEQITRAELRLYVSCQNHVDPSHDLKGSVVIYDVLDGTDAWDSATETKTFLVSQDIQDEGWETLEVSSAVKRWVRSDSTKSKNKLEVTVESHRKGCDTLDISVPPGSRNLPFFVVFSNDHSSGTKETRLELREMISHEQESVLKKLSKDGSTEAGESSHEEDTDGHVAAGSTLAIEGRSSGAGSHCQKTSLRVNFEDIGWDSWIIAPKEYEAYECRGGCFFPLADDVTPTKHAIVQTLVHLKFPTKVGKACCVPTKLSPISVLYKDDMGVPTLKYHYEGMSVAECGCR
notes: Human proBMP9 residues 23-429; mutant based on Pro-(X)-BMP-9; also called K357R BMP-9; source: expi293 (suspension HEK293), secreted; purified from conditioned medium by IMAC; not shown: 8xHis, N-terminal, kept
B4: Pro-(X)-BMP-9 G389S, K357R (natural protein, human, UniProt Q9UK05 23-429, looked up)
chain: KPLQSWGRGSAGGNAHSPLGVPGGGLPEHTFNLKMFLENVKVDFLRSLNLSGVPSQDKTRVEPPQYMIDLYNRYTSDKSTTPASNIVRSFSMEDAISITATEDFPFQKHILLFNISIPRHEQITRAELRLYVSCQNHVDPSHDLKGSVVIYDVLDGTDAWDSATETKTFLVSQDIQDEGWETLEVSSAVKRWVRSDSTKSKNKLEVTVESHRKGCDTLDISVPPGSRNLPFFVVFSNDHSSGTKETRLELREMISHEQESVLKKLSKDGSTEAGESSHEEDTDGHVAAGSTLAIEGRSSGAGSHCQKTSLRVNFEDIGWDSWIIAPKEYEAYECRGGCFFPLADDVTPTKHAIVQTLVHLKFPTKVSKACCVPTKLSPISVLYKDDMGVPTLKYHYEGMSVAECGCR
notes: Human proBMP9 residues 23-429; mutant based on Pro-(X)-BMP-9; also called G389S, K357R BMP-9; BMP-9 double mutant; source: expi293 (suspension HEK293), secreted; purified from conditioned medium by IMAC; not shown: 8xHis, N-terminal, kept
B5: BMP-9 G389S, K357R disulfide-linked dimer (ligand, human, UniProt Q9UK05 320-429, looked up)
chain: SSGAGSHCQKTSLRVNFEDIGWDSWIIAPKEYEAYECRGGCFFPLADDVTPTKHAIVQTLVHLKFPTKVSKACCVPTKLSPISVLYKDDMGVPTLKYHYEGMSVAECGCR
modifications: interchain disulfide Cys-392 to Cys-392'
notes: Human BMP-9 growth factor released by factor Xa from the G389S, K357R mutant of Pro-(X)-BMP-9 (proBMP9 residues 23-429, A321S, RRKR replaced by IEGR); also called BMP-9 double-mutant; BMP-9 G389S K357R Dimer; source: expi293 (suspension HEK293), secreted as Pro-(X)-BMP-9 mutant; IMAC, factor Xa digestion, C18 reverse phase
B6: BMP-9 G389S disulfide-linked dimer (ligand, human, UniProt Q9UK05 320-429, looked up)
chain: SSGAGSHCQKTSLRVNFEDIGWDSWIIAPKEYEAYECKGGCFFPLADDVTPTKHAIVQTLVHLKFPTKVSKACCVPTKLSPISVLYKDDMGVPTLKYHYEGMSVAECGCR
modifications: interchain disulfide Cys-392 to Cys-392'
notes: Human BMP-9 growth factor released by factor Xa from the G389S mutant of Pro-(X)-BMP-9 (proBMP9 residues 23-429, A321S, RRKR replaced by IEGR); also called BMP-9 G389S Dimer; source: expi293 (suspension HEK293), secreted as Pro-(X)-BMP-9 mutant; IMAC, factor Xa digestion, C18 reverse phase

Molecular target: the molecule itself
Experiment: non-reducing SDS-PAGE with densitometry; IMAC-purified pro-proteins from expi293 conditioned medium, non-reduced against reduced; bands of disulfide-linked dimer and monomer

Q: Does B1 bind?
A: binds

Q: Does B2 bind?
A: binds

Q: Does B3 bind?
A: binds

Q: Does B4 bind?
A: binds

Molecular target: the molecule itself
Experiment: crystal structure; BMP-9 disulfide-linked dimers (wild type and mutants) at neutral pH; 1 M NaCl, glycerol, 0.1 M HEPES pH 7.4; multi-crystal data split into fractions

Q: Does B5 bind?
A: binds

Q: Does B6 bind?
A: binds
